Laboratory results taken from paper PMC1919377, “Cation induced differential effect on structural and functional properties of Mycobacterium tuberculosis α-Isopropylmalate synthase” (BMC Structural Biology, 2007).

Target: the molecule itself
Experiment: cross-linking

B1: isolated TIM barrel domain of Mycobacterium tuberculosis α-isopropylmalate synthase (Arg47 to Phe457) (domain or fragment)
chain: RPFAEEVEPIRLRNRTWPDRVIDRAPLWCAVDLRDGNQALIDPMSPARKRRMFDLLVRMGYKEIEVGFPSASQTDFDFVREIIEQGAIPDDVTIQVLTQCRPELIERTFQACSGAPRAIVHFYNSTSILQRRVVFRANRAEVQAIATDGARKCVEQAAKYPGTQWRFEYSPESYTGTELEYAKQVCDAVGEVIAPTPERPIIFNLPATVEMTTPNVYADSIEWMSRNLANRESVILSLHPHNDRGTAVAAAELGFAAGADRIEGCLFGNGERTGNVCLVTLGLNLFSRGVDPQIDFSNIDEIRRTVEYCNQLPVHERHPYGGDLVYTAFSGSHQDAINKGLDAMKLDADAADCDVDDMLWQVPYLPIDPRDVGRTYEAVIRVNSQSGKGGVAYIMKTDHGLSLPRRLQIEF
notes: also called catalytic TIM barrel domain; Band I; not shown: histidine tag, N-terminal, cleaved
stoichiometry N: 2
